Measurements as given in US20170304384A1 (AFFIRIS, published 2017).
Ends that are not written are not given here.

B1: monoclonal antibody PRR13 (antibody, mouse IgG2a, V domains shown)
VH: EVQLQQSAPELVKPGASVKMSCKASGYSFTDFYMKWVKQSHGKGLEWIGDIDPKNGDTFYNQKFKGRATLTVDKSSSTAYMQLNSLTTEDSAVYYCATYYGYTMDYWGQGTSVTVSS
VL: QIVLTQSPAIMSASLGERVTMTCTASSSVTSSYLHWYQQKPGSSPKLWIYSTSNLASGVPARFSGSGSGTSYSLTISSMEAEDAATYYCHQYRRPPRTFGGGTKLEIKR
notes: Mouse hybridoma mAb raised with p6773, typed mouse IgG2a; The consensus entries come from cDNA and appear to include the leader and the start of the constant region; also called mAB PRR13
B2: monoclonal antibody M1D1 (antibody, mouse IgM, V domains shown)
VH: EVQLVESGGGLVQPKGSLKLSCAASGFTFNTYAMNWVRQAPGKGLEWVARIRSKSNNYATYYADSVKDRFTISRDDSQSMLYLQMNNLKTEDTAMYYCVRHGEYGNPWFAYWGQGTLVTVSA
VL: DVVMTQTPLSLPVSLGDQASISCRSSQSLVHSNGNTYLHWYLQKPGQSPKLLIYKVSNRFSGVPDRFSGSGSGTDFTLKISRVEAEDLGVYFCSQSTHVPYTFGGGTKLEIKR
notes: Mouse hybridoma mAb raised with p7564, typed mouse IgM; The consensus entries appear to include the leader and the start of the constant region; also called mAB M1D1

Tests used:
[1] = molecular target: T1, peptide p6773 (human, not fully specified (residue 18)); assay: peptide ELISA / peptide microarray
T1 peptide: LPQPPPQAQPLLPQPQPC

[2] = molecular target: T2, recombinant N-terminal 610 amino acids Huntingtin fragment recHTT610 (human, UniProt P42858 1-610); assay: recHTT610 capture ELISA
T2 construct: range 1-610; Expressed in HEK293 freestyle cells and captured from cell extract by anti-V5 antibody; also called recombinant Huntingtin; reHTT610; not shown: two C-terminal V5 tags
T2 sequence (P42858 1-610): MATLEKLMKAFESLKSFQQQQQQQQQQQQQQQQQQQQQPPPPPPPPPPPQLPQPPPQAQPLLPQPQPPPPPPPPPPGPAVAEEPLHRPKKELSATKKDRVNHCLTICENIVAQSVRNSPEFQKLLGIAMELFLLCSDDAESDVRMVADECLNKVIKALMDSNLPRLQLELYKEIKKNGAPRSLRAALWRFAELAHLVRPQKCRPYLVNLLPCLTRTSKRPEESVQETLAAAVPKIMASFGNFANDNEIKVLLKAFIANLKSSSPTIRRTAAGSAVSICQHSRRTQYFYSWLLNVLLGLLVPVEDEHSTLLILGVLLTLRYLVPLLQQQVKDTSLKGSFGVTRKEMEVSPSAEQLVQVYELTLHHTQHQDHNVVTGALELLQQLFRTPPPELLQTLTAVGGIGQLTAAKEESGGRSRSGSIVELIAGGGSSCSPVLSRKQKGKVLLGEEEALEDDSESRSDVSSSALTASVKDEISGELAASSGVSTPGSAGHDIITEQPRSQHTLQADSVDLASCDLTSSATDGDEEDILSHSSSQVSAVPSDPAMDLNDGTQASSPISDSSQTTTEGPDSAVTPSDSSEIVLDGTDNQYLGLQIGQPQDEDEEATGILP
Description: Binding of antibodies to N-terminal fragment HTT610 was determined by a standard protein capture ELISA procedure using Maxisorb™ ELISA plates (Thermo; CatNr. 439454), coated with 50 μl of a 1:5000 rabbit anti V5 mAB (Sigma, CatNr. V8137), blocking with blocking buffer (PBS, 1% BSA, 0.1% Tween 20), capturing of recombinant Huntingtin from HEK cell extracts (100 ng/μl total protein) followed by incubation with several dilutions of mouse anti HTT sera (1:100; 1:300 and 1:900) or with mAB2166 as reference (diluted 1:2000; Millipore, Cat Nr. MAB2166) for 1 hour at RT. ELISA incubations, washing and detection procedures were performed according to standard procedures.
In contrast to specific anti peptide signals (FIG. 11), only 2 out of 9 mAB candidates, namely PRR13 and PRR18, specifically recognize recombinant Huntingtin when tested by recHTT610 capture ELISA (as explained in Example 1). These two candidates provided an outstanding signal to noise ratio (i.e. >=4; calculated reHTT610-specific signal: HEK ctrl extracts), and PRR13 was selected for epitope characterization (see Example 4) and variable chain sequencing (see below). PRR13 was determined as IgG subtype mouse IgG2a.

[3] = molecular target: T3, peptide p7552 (human, not fully specified (residue 1)); assay: peptide ELISA at a mAB concentration of 1 ng/µl
T3 peptide: CSSEIVLD

[4] = molecular target: T4, peptide p7562 (human, not fully specified (residue 1)); assay: peptide ELISA at a mAB concentration of 1 ng/µl
T4 peptide: CDSSEIVLD

[5] = molecular target: T5, peptide p7605 (human, not fully specified (residue 1)); assay: peptide ELISA
T5 peptide: CSEIVL

[6] = molecular target: T6, peptide p7564 (human, not fully specified (residue 1)); assay: peptide ELISA
T6 construct: also called cleaved peptide
T6 peptide: CPSDSSEIVLD

Row | Binder | binding result [1] | signal to noise ratio (reHTT610-specific signal : HEK ctrl extracts) [2] [ratio] | binding result [3] | binding result [4] | binding result [5] | binding result [6]
1 | B1 | binds | ≥ 4 | – | – | – | –
2 | B2 | – | – | binds | binds | no binding (tested: mAB concentration of 1 ng/µl) | binds
